Experimental data taken from publication PMC5902578.

Tests used:
[1] = target: yeast Hsp90 W300A (S. cerevisiae) (UniProt P02829); assay: AUC; as a1, with 2 mM ATPγS
[2] = target: yeast Hsp90 W300E (S. cerevisiae) (UniProt P02829); assay: AUC; as a1, with 2 mM ATPγS
[3] = target: yeast Hsp90 W300A (S. cerevisiae) (UniProt P02829); assay: AUC; as a1, with 2 mM AMP–PNP
[4] = target: yeast Hsp90 W300E (S. cerevisiae) (UniProt P02829); assay: AUC; as a1, with 2 mM AMP–PNP

Measured: percent of labelled GR-LBD in complex

human glucocorticoid receptor ligand binding domain (GR-LBD) (domain or fragment)
< 5%: [1] | [2] | [3] | [4]
